These results are taken from the DeepSol protein solubility set.

The data set can be described thus: soluble on expression in E. coli; label from the status in PepcDB or PDB records.
Turning to “MASTRPDNVLVWMASRGSYVESMPGTILRIKNASKFGENLYGFKDQPGELVEVTWDAMFKLRPTLVEVDFGRNPCDELVKVIEKNYNNEQISHFFEKVKALSLHMTDITSESLLKLMDKFTLLAAFSFSETKFSTPEWATILKRLSELNLRGIDLSDNILSEVQQHIDVSLMKLSGNPGVDVNEFKKGIEFVTVKVLAVQELKFLGETDAEQLLEVLPQSFPRLETLIWDWNVVDPELNFDERTKKVLDQLLFVNKQLNLGSLAVVAYTPNPETKTAIESVARTLKGSIKDVQLHQFATKGLSDGMANFSLIVAGNNEKAMKELMDMYMVDRSTMPPMGKLLRLCEEDIVPIYPAITMDFGGFNKNRIRQLYTESPTD”, the “soluble on expression in E. coli” value is “not soluble”.

“MAHHHHHHSLDASTLFKKVKVKRVLGSLEQQIDDITTDSRTAREGSIFVASVGYTVDSHKFCQNVADQGCKLVVVNKEQSLPANVTQVVVPDTLRVASILAHTLYDYPSHQLVTFGVTGTNGKTSIATMIHLIQRKLQKNSAYLGTNGFQINETKTKGANTTPETVSLTKKIKEAVDAGAESMTLEVSSHGLVLGRLRGVEFDVAIFSNLTQDHLDFHGTMEAYGHAKSLLFSQLGEDLSKEKYVVLNNDDSFSEYLRTVTPYEVFSYGIDEEAQFMAKNIQESLQGVSFDFVTPFGTYPVKSPYVGKFNISNIMAAMIAVWSKGTSLETIIKAVENLEPVEGRLEVLDPSLPIDLIIDYAHTADGMNKLIDAVQPFVKQKLIFLVGMAGERDLTKTPEMGRVACRADYVIFTPDNPANDDPKMLKAELAKGATHQNYIEFDDRAEGIKHAIDIAEPGDTVVLASKGREPYQIMPGHIKVPHRDDLIGLEAAYKKFGGGPVDQEG”: the “soluble on expression in E. coli” value is “soluble”.

In the case of “MVLFDQATYEKLLIEAPKFKLITPSILSDRMRVYICIYLLISYSRNDSYIIWQ”, the “soluble on expression in E. coli” value is reported as “not soluble”.

“MDAGLDARGKGWARAITRLCDEHLYYLMLYFRWFDEDSWRVLKPVFFGSLPFGVRDAVAWAMRRKVRATLRAQGLGVHGRDELLAFARDDLDALDGLLGQVPYYGGEHPCSADAAAYGILANLIEATLDTPLSHVARGYPRLVAYCERMRERVWSELEHHHHHH”: the “soluble on expression in E. coli” value is “not soluble”.

Consider “MATCLVEFAKSPPVFSPGEKVTGNVKMTIPDDEFKARKVRMEMIGKAYTYWEGNVRNNHTKIKNGDIARVRHNCADHKGKIVYCRFETIVWKSDGAKNDMPSGPHIFPFSFQLPHWAPPSFEGDLGFIRYFIKVEIDRPWKFDDKFITCLTVLPNIDLRLIPNSQVPSKKHVCEEFGAVLWKNGLVRMELRLPKQGFVCGENIPVTMIVDNKTSKSFKKISLRLVQRVTYTGFRDGFVNSHSQPCIGNEKEKITYATRLNAQTRVEERQISETNIDIKIDKNEKQEVEKPIPLPPLPPSTKTCEIIDVEYFLKVKMSTSGALKSAVKLELAFIIGTMPIDPERKYEYKKSVFGFAATSLKNRDVQKFAPLYPVFKFDE”, for which the “soluble on expression in E. coli” value was “not soluble”.

Regarding “MSLTESESGGDTMMAAVLDVLPHGRPGDDRPQHQKEPLAYALDIDEFYIYELQLADKDADIAFGDRIDLTEFGRVTEVEFEDIPSGARSELDYAVEEVVEANEQRFVDFYNDAQPITLRLHQLNLLPGIGKKLRNTILDERKRKPFESFEDLEKRVSGLHSPKETLVERILEELQDDDLKYRLFVRREEQSSEGHHHHHH”, the “soluble on expression in E. coli” value is “soluble”.

For “SMQEEDTFRELRIFLRNVTHRLAIDKRFRVFTKPVDPDEVPDYVTVIKQPMDLSSVISKIDLHKYLTVKDYLRDIDLICSNALEYNPDRDPGDRLIRHRACALRDTAYAIIKEELDEDFEQLCEEIQESR”, the “soluble on expression in E. coli” value was “soluble”.

Consider “MSLNVLIVDDEANIRKTLTVFMESRGHRVKAVSNSRDACAEAEQQVFDLAFVDIRLGIESGLDLERSLLNACPWIKIVIITAYASIETAVEAMKRGASDYLAKPFTPDQLESITARLAEVCAMEMRIASLQEDLNRMHPEVYFTSRYPSMQRAIELSRQVALSDALVLLRGPSGTGKTVLARSIHNWSQRKEEPFGVVSCPSLSTELLESELFGHVKGSFPGAVRDKPGRVTLCEGGSLFLDEIGDLPLSIQAKLLRFIQDREYERIGDHQTRKADVRIIAATNTNLDLAVREGEFREDLFYRLNGIQIDLPTLAERPNDVEQLALNMLQFFAAQNLKNFDGFTEEARTALRTYSWPGNIRELRNVMERAVILGKNGQIGIELLPDSIVAKTHPVTEGHHHHHH”, for which the “soluble on expression in E. coli” value is reported as “soluble”.

In the case of “GPGSMVIKKDVPFKYTLHQGLCERDPVLSTPLIITAGVDGNELQYRLDMQVPSHSAIEGMEVTNVEFLFTSSKCNAGKSNQHLSKCSMLVYLYMQLLDGVGRPTSPPFPISCCNTHTGKGIFSCVKLPLQVNQQCRFYLVRRSCTDSASQSAMELKGVRFTSKLYLLYRSPLNSAKVRSQMDVLTGGDLKFTADTEVMTSTGAKRSREELERFGSENSDRKGKKAKRERETATTMDRASDDEPPNLIYAFVSGGDNES”, the “soluble on expression in E. coli” value was “soluble”.

Turning to “MDVRRLKVNELREELQRRGLDTRGLKAELAERLQAALEAEEPDDERELDADDEPGRPGHINEEVETEGGSELEGTAQPPPPGLQPHAEPGGYSGPDGHYAMDNITRQNQFYDTQVIKQENESGYERRPLEMEQQQAYRPEMKTEMKQGAPTSFLPPEASQLKPDRQQFQSRKRPYEENRGRGYFEHREDRRGRSPQPPAEEDEDDFDDTLVAIDTYNCDLHFKVARDRSSGYPLTIEGFAYLWSGARASYGVRRGRVCFEMKINEEISVKHLPSTEPDPHVVRIGWSLDSCSTQLGEEPFSYGYGGTGKKSTNSRFENYGDKFAENDVIGCFADFECGNDVELSFTKNGKWMGIAFRIQKEALGGQALYPHVLVKNCAVEFNFGQRAEPYCSVLPGFTFIQHLPLSERIRGTVGPKSKAECEILMMVGLPAAGKTTWAIKHAASNPSKKYNILGTNAIMDKMRVMGLRRQRNYAGRWDVLIQQATQCLNRLIQIAARKKRNYILDQTNVYGSAQRRKMRPFEGFQRKAIVICPTDEDLKDRTIKRTDEEGKDVPDHAVLEMKANFTLPDVGDFLDEVLFIELQREEADKLVRQYNEEGRKAGPPPEKRFDNRGGGGFRGRGGGGGFQRYENRGPPGGNRGGFQNRGGGSGGGGNYRGGFNRSGGGGYSQNRWGNNNRDNNNSNNRGSYNRAPQQQPPPQQPPPPQPPPQQPPPPPSYSPARNPPGASTYNKNSNIPGSSANTSTPTVSSYSPPQPSYSQPPYNQGGYSQGYTAPPPPPPPPPAYNYGSYGGYNPAPYTPPPPPTAQTYPQPSYNQYQQYAQQWNQYYQNQGQWPPYYGNYDYGSYSGNTQGGTSTQ”, the “soluble on expression in E. coli” value is reported as “soluble”.

As to “MGSDKIHHHHHHMDLYQEELIKKISAITPFYIVGGTVRDHLLNRPGKDVDGIIPIPLEELEKHLREWGYHPLKIGAKHQTLSVFQQGQRMDINFFDGDLEADALRRDFTINAVFQDARTGELIDPLQGREDLENKLLRACGNPWERFREDPVRILRMVRFSVQYGMDIEEDTFRSAQSLLPELKHVASERTSEELGRILTLADPAAGIRLLNELGYLTLYLPELVRLQGLAQNRYHTKDAWEHTLQVLANTPPQPILRLAGLFHDLGKWEVASRECYVWGKCWAEDKGYYIGEYRILGRQLHRYHGDYVEVHGTRLDHYPQVIQVKRIRKDPSCRRGFEWVRDGKRHFLGHEKESGRLTRQILARFRLAMVLGKEGEGGEKELLWLIENHMSGTLSFIAELRGEGSALQLNQKVRQFVWEKGWDGRSYRLTRVDQLLELWRADFYGGKKREPKEEQIFEELLEKLHQTNKAVQKRHQELEWGELEKFAQEHKIKGREWGDFKESLRKTRVVSVDWIPLTTGFLEKEYKHFKGRNYAKRERE”, the “soluble on expression in E. coli” value is given as “not soluble”.

In the case of “MVTKAKQIREKESKVAEFKYKNLTQEEQDKLDAATFRRLLAHLDANKDVQNIDLMILAGFCRNCFSKWYKAEAENLSLDLDIDDARERVYGMTYDEWKQNHQPAATPEQLAAFEARQKK”, the “soluble on expression in E. coli” value was “not soluble”.

“MFVVKDCCQMIEVLFFIFKTNFKNCFPKMRKSKMYKSEPYSKKTIKIKKATDCGVITNIFSHFNEYVKQTIR”: the “soluble on expression in E. coli” value is on record as “soluble”.

For “MDLADLMEVENGDHSINQKHVQITFFSKDEEIPQIPDAVFDVPTGAECDDMNLLLNKTIEANDGAWKERRFEFLVGETFLRTSLAEFIEEYEVETETILKVECVIGIEAPKPLHDIQAPDWVSSVQIANGHIFSTTYGGDIVIVDRKGKETKLAVNSANRLLKCISIVKAPSKKNQLDGTEFVVGGENQLLTLYAIEKGALVEKLILRGHERAVECVSVNSDSTRAISGSVDTNLKIWNLDASDEATTYEKEEEEESAKKRRKKETKTKVPMVTIGGHRDKVSAVEWCPWNSGHAFSCSWDHTIVEWDLELAGEISRIKGPKSFTSIDLHPKSDLLISSCTDAIPRLYDPKNRDGSMVKQSFIGHQNGWVEAVKWNPLDTNQFVSVSTDKTAKMWDVRSSKSSLFDIHGHDDRILCATWNEGLIATGSADCTIKIFETA”, the “soluble on expression in E. coli” value is reported as “not soluble”.

Regarding “MKLAIIIPVYNAEETIKRAILSVDTSVPYEIICINDGSTDQTQHVLTELQQKHPHIKVIHQSNQGAARSRNVGLEAMSEDVDAFLFLDADDEFLPSRIDLMVNAFNKNKETDVVIGQMARDVNGEWQVISTHQSMVKDAIVTLDRKPDILQSIGPGAKLFSSKYAGLRFDEDVVFCEEHTFIVKAFSKARDIQLIPNIVYGYNEREGSVTAQRADTFLPYMSDALKVRQRVMELLLLLDEKIYYSYRMDNLIVSYLIQAHLKKNNKITQSLLESVIEYMKAMQHTHYSGEAMFRIVRAVEQSATHWTKPLYLQWKKALSEVGIGRPGLIRFKLQVIPKKISFSGKESLKRIFKK”, the “soluble on expression in E. coli” value is recorded as “not soluble”.

With “MAIFTDPIREHADFGPGDAEWLHLLVGDWQMVADLAFADLALWFPHPEFGYIALAHVRPSTSHTVFHADFVGEGIRSDLRPLVDKAWNSRSIERSSETSWSSEMALRVEAVPMVRNGRTLAVVTSHMDLSSSRMPSRLELTYRQCAYDLLRMGTLGLWPDFASPTGSRRGAPRVGDGLIRLDAEGIVQYASPNGVSAFRRLGEVESLEGRSLAEVTAGLLKDRRMVDETLPLVVTGRMPWRSEIESRGVSLSLRAIPLRDEQHRFGALVLCRDVSELRRREMELVTKDATIREIHHRVKNNLQTVAALLRMQSRRMVSDEAKQGLEQAMRRVATIALVHETLSQGLTQSVDFDELIGRQFRLSAEVASPSQQVRTERSGLFGELPSDFATPLALVINELVTNAVEHGLEGRTGTVWLLADRADGDGNDEFLTVTIADDGVGLPDGQYTEGLGLQIVRTLVTSELGGSIQWSPREGGGTAVEIVLNLARA”, the “soluble on expression in E. coli” value was “not soluble”.

For “MRARSSLSAGQREELVALFEQGYSYWAAAHHVGVGVYPVRALFRRFLLHGKLCLVEKPSKQQYSFEIKKEVVQRHLAGESKMDLAREFGLSSDQMVGYWSRKWRKGGDDALKLKPKGRPKGSAKPKVLTEEDKLRRENERLRAENAYLKKLRDLKNQGHALEHHHHHH”, the “soluble on expression in E. coli” value is “not soluble”.

With “MTKLPQTQGVLNFIQKYLYNSTNYNFEDGSTQAINVPYPDSGVYENYILHYPDATSTELLDINIDQLYSEVMVLTDPKIERAYEYILEERDPGTSSTNILVTVGVE”, the “soluble on expression in E. coli” value is on record as “not soluble”.

On to “MRNGISPIIIDNTNLHAWEMKPYAVMALENNYEVIFREPDTRWKFNVQELARRNIHGVPKEKIQRMKERYEHNVTFHSVLHAEKPSRANRNQGRNSEPSSGSGYWNTYTELPNRRANGLYSNEGYRRGGHHQGY”, for which the “soluble on expression in E. coli” value was “not soluble”.

With “MAHHHHHHMRRYVKPSNIVGANISHPVDIFKMTVEHRVQCGSCHKVRYTRETDCCLSLPIPLDPNLKNSDGNPKQTEEEIFASRPHISLDACLGSLMQATDIDCRCSACGIPVTYCKTTRLRTFPDVLPIFLRRAQFDMETMSVRKLDVFVDVPLELDLEFLRGKGLQSDEVSMPEAREDLPHKPTSSSMKTVDEEALAMLLSMGIEETVARYALLQTGMNAERAVDYVFSRENIAEEAGLAEISTTASESQPVHVLDGPAKYRLHAMISHVGASAKTGHYVCHICDAQTGKWLLFNDEKVAESLNPPFSMAFLYFYKRVGK”, the “soluble on expression in E. coli” value is reported as “soluble”.
